According to the supplement of paper PMC5998384:

Assays:
HeLa Kyoto [1] = assay: melting temperature (median over replicates), in situ; higher = more thermally stable
HeLa Kyoto [2] = assay: solubility in G1/S (NP-40 vs SDS abundance) (log2 ratio); higher = more soluble; settings: cell cycle stage: G1/S
HeLa Kyoto [3] = assay: solubility change mitosis vs G1/S (difference of NP-40 vs SDS log2 ratios) (log2 ratio difference); higher = more soluble in mitosis
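Throughout, for melting temperature (median over replicates), in situ: HeLa Kyoto cells synchronized by double thymidine or nocodazole block, proteins quantified by TMT10plex mass spectrometry, three independent biological replicates.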
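Throughout, for solubility change mitosis vs G1/S (difference of NP-40 vs SDS log2 ratios): synchronized HeLa Kyoto cells (double thymidine block for G1/S, nocodazole release for mitosis), protein amounts in NP-40 versus SDS lysates quantified by mass spectrometry, three biological replicates.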
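Throughout, for solubility in G1/S (NP-40 vs SDS abundance): HeLa Kyoto cells arrested at G1/S by double thymidine block, proteins quantified by TMT10plex mass spectrometry in mild NP-40 versus SDS extracts, three biological replicates.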

Sequence	melting temperature (HeLa Kyoto [1]; cell cycle stage: G1/S) [°C]	melting temperature (HeLa Kyoto [1]; cell cycle stage: mitosis) [°C]	solubility in G1/S (log2) (HeLa Kyoto [2])	solubility change mitosis (log2) (HeLa Kyoto [3])
MSCGNEFVETLKKIGYPKADNLNGEDFDWLFEGVEDESFLKWFCGNVNEQNVLSERELEAFSILQKSGKPILEGAALDEALKTCKTSDLKTPRLDDKELEKLEDEVQTLLKLKNLKIQRRNKCQLMASVTSHKSLRLNAKEEEATKKLKQSQGILNAMITKISNELQALTDEVTQLMMFFRHSNLGQGTNPLVFLSQFSLEKYLSQEEQSTAALTLYTKKQFFQGIHEVVESSNEDNFQLLDIQTPSICDNQEILEERRLEMARLQLAYICAQHQLIHLKASNSSMKSSIKWAEESLHSLTSKAVDKENLDAKISSLTSEIMKLEKEVTQIKDRSLPAVVRENAQLLNMPVVKGDFDLQIAKQDYYTARQELVLNQLIKQKASFELLQLSYEIELRKHRDIYRQLENLVQELSQSNMMLYKQLEMLTDPSVSQQINPRNTIDTKDYSTHRLYQVLEGENKKKELFLTHGNLEEVAEKLKQNISLVQDQLAVSAQEHSFFLSKRNKDVDMLCDTLYQGGNQLLLSDQELTEQFHKVESQLNKLNHLLTDILADVKTKRKTLANNKLHQMEREFYVYFLKDEDYLKDIVENLETQSKIKAVSLED [HAUS3]	48.6	49.8	0.0967	0.224
MSDCYTELEKAVIVLVENFYKYVSKYSLVKNKISKSSFREMLQKELNHMLSDTGNRKAADKLIQNLDANHDGRISFDEYWTLIGGITGPIAKLIHEQEQQSSS [S100A16]	51.3		-0.172	0.301
MSDESASGSDPDLDPDVELEDAEEEEEEEEVAVEECDRDDEEDLLDDPSLEGMCGTEHAQLGEDGQQPPRCTSTTSSQSEPSEQLRRHQGKNLASEDPKKKRAQKPSHMRRNIRKLLREDQLEPVTKAAQQEELERRKRLEQQRKDYAAPIPTVPLEFLPEEIALRASDGPQLPPRVLAQEVICLDSSSGSEDEKSSRDEVIELSSGEEDTLHIVDSSESVSEDDEEEEKGGTHVNDVLNQRDALGRVLVNLNHPPEEENVFLAPQLARAVKPHQIGGIRFLYDNLVESLERFKTSSGFGCILAHSMGLGKTLQVISFIDVLFRHTPAKTVLAIVPVNTLQNWLAEFNMWLPPPEALPADNKPEEVQPRFFKVHILNDEHKTMASRAKVMADWVSEGGVLLMGYEMYRLLTLKKSFATGRPKKTKKRSHPVIIDLDEEDRQQEFRREFEKALCRPGPDVVICDEGHRIKNCQASTSQALKNIRSRRRVVLTGYPLQNNLIEYWCMVDFVRPDFLGTRQEFSNMFERPILNGQCIDSTPQDVRLMRYRSHVLHSLLEGFVQRRGHTVLKIHLPAKEENVILVRLSKIQRDLYTQFMDRFRDCGSSGWLGLNPLKAFCVCCKIWNHPDVLYEALQKESLANEQDLDVEELGSAGTSARCPPQGTKGKGEDSTLASSMGEATNSKFLQGVGFNPFQERGNNIVTYEWAKDLLTNYQTGVLENSPKMVLLFHLIEESVKLGDKILVFSQSLSTLALIEEFLGKREVPCPPGTEGQGAQKWVRNISYFRLDGSTPAFERERLINQFNDPSNLTTWLFLLSTRAGCLGVNLIGANRVVVFDASWNPCHDAQAVCRVYRYGQKKPCYIYRLVADYTLEKKIYDRQISKQGMSDRVVDDLNPMLNFTRKEVENLLHFVEKEPAPQVSLNVKGIKESVLQLACLKYPHLITKEPFEHESLLLNRKDHKLTKAEKKAAKKSYEEDKRTSVPYTRPSYAQYYPASDQSLTSIPAFSQRNWQPTLKGDEKPVASVRPVQSTPIPMMPRHVPLGGSVSSASSTNPSMNFPINYLQRAGVLVQKVVTTTDIVIPGLNSSTDVQARINAGESIHIIRGTKGTYIRTSDGRIFAVRATGKPKVPEDGRMAASGSQGPSCESTSNGRHSASSPKAPDPEGLARPVSPDSPEIISELQQYADVAAARESRQSSPSTNAALPGPPAQLMDSSAVPGTALGTEPRLGGHCLNSSLLVTGQPCGDRHPVLDLRGHKRKLATPPAAQESSRRRSRKGHLPAPVQPYEHGYPVSGGFAMPPVSLNHNLTTPFTSQAGENSLFMGSTPSYYQLSNLLADARLVFPVTTDPLVPAGPVSSSSTATSVTASNPSFMLNPSVPGILPSYSLPFSQPLLSEPRMFAPFPSPVLPSNLSRGMSIYPGYMSPHAGYPAGGLLRSQVPPFDSHEVAEVGFSSNDDEDKDDDVIEVTGK [RAD54L2]		49.7	-0.0448	-0.143
MSGAGEALAPGPVGPQRVAEAGGGQLGSTAQGKCDKDNTEKDITQATNSHFTHGEMQDQSIWGNPSDGELIRTQPQRLPQLQTSAQVPSGEEIGKIKNGHTGLSNGNGIHHGAKHGSADNRKLSAPVSQKMHRKIQSSLSVNSDISKKSKVNAVFSQKTGSSPEDCCVHCILACLFCEFLTLCNIVLGQASCGICTSEACCCCCGDEMGDDCNCPCDMDCGIMDACCESSDCLEICMECCGICFPS [MDFIC]	57.2	55.7	-0.698	0.671
MSGLDGVKRTTPLQTHSIIISDQVPSDQDAHQYLRLRDQSEATQVMAEPGEGGSETVALPPPPPSEEGGVPQDAAGRGGTPQIRVVGGRGHVAIKAGQEEGQPPAEGLAAASVVMAADRSLKKGVQGGEKALEICGAQRSASELTAGAEAEAEEVKTGKCATVSAAVAERESAEVVKEGLAEKEVMEEQMEVEEQPPEGEEIEVAEEDRLEEEAREEEGPWPLHEALRMDPLEAIQLELDTVNAQADRAFQQLEHKFGRMRRHYLERRNYIIQNIPGFWMTAFRNHPQLSAMIRGQDAEMLRYITNLEVKELRHPRTGCKFKFFFRRNPYFRNKLIVKEYEVRSSGRVVSLSTPIIWRRGHEPQSFIRRNQDLICSFFTWFSDHSLPESDKIAEIIKEDLWPNPLQYYLLREGVRRARRRPLREPVEIPRPFGFQSG [TSPYL1]	51.2	49.9	-0.443	0.141
MSLQSRLSGRLAQLRAAGQLLVPPRPRPGHLAGATRTRSSTCGPPAFLGVFGRRARTSAGVGAWGAAAVGRTAGVRTWAPLAMAAKVDLSTSTDWKEAKSFLKGLSDKQREEHYFCKDFVRLKKIPTWKEMAKGVAVKVEEPRYKKDKQLNEKISLLRSDITKLEVDAIVNAANSSLLGGGGVDGCIHRAAGPLLTDECRTLQSCKTGKAKITGGYRLPAKYVIHTVGPIAYGEPSASQAAELRSCYLSSLDLLLEHRLRSVAFPCISTGVFGYPCEAAAEIVLATLREWLEQHKDKVDRLIICVFLEKDEDIYRSRLPHYFPVA [MACROD1]	50.6	51.1	0.246	-0.147
MSLVDLGKKLLEAARAGQDDEVRILMANGAPFTTDWLGTSPLHLAAQYGHYSTTEVLLRAGVSRDARTKVDRTPLHMAASEGHASIVEVLLKHGADVNAKDMLKMTALHWATEHNHQEVVELLIKYGADVHTQSKFCKTAFDISIDNGNEDLAEILQIAMQNQINTNPESPDTVTIHAATPQFIIGPGGVVNLTGLVSSENSSKATDETGVSAVQFGNSSTSVLATLAALAEASAPLSNSSETPVVATEEVVTAESVDGAIQQVVSSGGQQVITIVTDGIQLGNLHSIPTSGIGQPIIVTMPDGQQVLTVPATDIAEETVISEEPPAKRQCIEIIENRVESAEIEEREALQKQLDEANREAQKYRQQLLKKEQEAEAYRQKLEAMTRLQTNKEAV [GABPB1]	46.9	49.7	0.111	-0.139
MSQSRHRAEAPPLEREDSGTFSLGKMITAKPGKTPIQVLHEYGMKTKNIPVYECERSDVQIHVPTFTFRVTVGDITCTGEGTSKKLAKHRAAEAAINILKANASICFAVPDPLMPDPSKQPKNQLNPIGSLQELAIHHGWRLPEYTLSQEGGPAHKREYTTICRLESFMETGKGASKKQAKRNAAEKFLAKFSNISPENHISLTNVVGHSLGCTWHSLRNSPGEKINLLKRSLLSIPNTDYIQLLSEIAKEQGFNITYLDIDELSANGQYQCLAELSTSPITVCHGSGISCGNAQSDAAHNALQYLKIIAERK [PRKRA]	50.1	50	0.0756	0.0942
MSRKQNQKDSSGFIFDLQSNTVLAQGGAFENMKEKINAVRAIVPNKSNNEIILVLQHFDNCVDKTVQAFMEGSASEVLKEWTVTGKKKNKKKKNKPKPAAEPSNGIPDSSKSVSIQEEQSAPSSEKGGMNGYHVNGAINDTESVDSLSEGLETLSIDARELEDPESAMLDTLDRTGSMLQNGVSDFETKSLTMHSIHNSQQPRNAAKSLSRPTTETQFSNMGMEDVPLATSKKLSSNIEKSVKDLQRCTVSLARYRVVVKEEMDASIKKMKQAFAELESCLMDREVALLAEMDKVKAEAMEILLSRQKKAELLKKMTHVAVQMSEQQLVELRADIKHFVSERKYDEDLGRVARFTCDVETLKKSIDSFGQVSHPKNSYSTRSRCSSVTSVSLSSPSDASAASSSTCASPPSLTSANKKNFAPGETPAAIANSSGQPYQPLREVLPGNRRGGQGYRPQGQKSNDPMNQGRHDSMGRYRNSSWYSSGSRYQSAPSQAPGNTIERGQTHSAGTNGTGVSMEPSPPTPSFKKGLPQRKPRTSQTEAVNS [SPATS2]	52.2	51.5	-1.01	0.928
MSTGFSFGSGTLGSTTVAAGGTSTGGVFSFGTGASSNPSVGLNFGNLGSTSTPATTSAPSSGFGTGLFGSKPATGFTLGGTNTGIATTITTGLTLGTPATTSAATTGFSLGFNKPAASATPFALPITSTSASGLTLSSALTSTPAASTGFTLNNLGGTTATTTTASTGLSLGGALAGLGGSLFQSTNTGTSGLGQNALGLTLGTTAATSTAGNEGLGGIDFSSSSDKKSDKTGTRPEDSKALKDENLPPVICQDVENLQKFVKEQKQVQEEISRMSSKAMLKVQEDIKALKQLLSLAANGIQRNTLNIDKLKIETAQELKNAEIALRTQKTPPGLQHEYAAPADYFRILVQQFEVQLQQYRQQIEELENHLATQANNSHITPQDLSMAMQKIYQTFVALAAQLQSIHENVKVLKEQYLGYRKMFLGDAVDVFETRRAEAKKWQNTPRVTTGPTPFSTMPNAAAVAMAATLTQQQQPATGPQPSLGVSFGTPFGSGIGTGLQSSGLGSSNLGGFGTSSGFGCSTTGASTFGFGTTNKPSGSLSAGFGSSSTSGFNFSNPGITASAGLTFGVSNPASAGFGTGGQLLQLKKPPAGNKRGKR [NUP58]	54.1	52.7	0.542	0.234
MSTGPTAATGSNRRLQQTQNQVDEVVDIMRVNVDKVLERDQKLSELDDRADALQAGASQFETSAAKLKRKYWWKNCKMWAIGITVLVIFIIIIIVWVVSS [VAMP3]		54.7	0.0764	-0.16
MTDRYTIHSQLEHLQSKYIGTGHADTTKWEWLVNQHRDSYCSYMGHFDLLNYFAIAENESKARVRFNLMEKMLQPCGPPADKPEEN [SF3B5]	52.7	51.1	-0.73	0.221
MTELAGASSSCCHRPAGRGAMQSVLHHFQRLRGREGGSHFINTSSPRGEAKMSITSDEVNFLVYRYLQESGFSHSAFTFGIESHISQSNINGTLVPPAALISILQKGLQYVEAEISINEDGTVFDGRPIESLSLIDAVMPDVVQTRQQAFREKLAQQQASAAAAAAAATAAATAATTTSAGVSHQNPSKNREATVNGEENRAHSVNNHAKPMEIDGEVEIPSSKATVLRGHESEVFICAWNPVSDLLASGSGDSTARIWNLNENSNGGSTQLVLRHCIREGGHDVPSNKDVTSLDWNTNGTLLATGSYDGFARIWTEDGNLASTLGQHKGPIFALKWNRKGNYILSAGVDKTTIIWDAHTGEAKQQFPFHSAPALDVDWQNNTTFASCSTDMCIHVCRLGCDRPVKTFQGHTNEVNAIKWDPSGMLLASCSDDMTLKIWSMKQEVCIHDLQAHNKEIYTIKWSPTGPATSNPNSNIMLASASFDSTVRLWDIERGVCTHTLTKHQEPVYSVAFSPDGKYLASGSFDKCVHIWNTQSGNLVHSYRGTGGIFEVCWNARGDKVGASASDGSVCVLDLRK [TBL1X]		52.5	-0.043	-0.0781
